Experimental findings from patent US20110283945A1 are described below.

In this experiment the target is trypsin activity of mated D. melanogaster female hemolymph. In words: cell-based or functional assay.

As to “Bowman-Birk Inhibitor (BBI), trypsin/chymotrypsin inhibitor from soybeans (from UniProt P01055 40-110)”, the reduced cleavage of the trypsin substrate N-Bnz-R-pna by mated female hemolymph was 78%.
